Results on 18 sequences are retold here after the DeepSol protein solubility set.

The data set is described as follows: soluble on expression in E. coli; label from the status in PepcDB or PDB records.
With “MAVAMDNAILENILRQVRPLIGQGKVADYIPALATVDGSRLGIAICTVDGQLFQAGDAQERFSIQSISKVLSLVVAMRHYSEEEIWQRVGKDPSGSPFNSLVQLEMEQGIPRNPFINAGALVVCDMLQGRLSAPRQRMLEVVRGLSGVSDISYDTVVARSEFEHSARNAAIAWLMKSFGNFHHDVTTVLQNYFHYCALKMSCVELARTFVFLANQGKAIHIDEPVVTPMQARQINALMATSGMYQNAGEFAWRVGLPAKSGVGGGIVAIVPHEMAIAVWSPELDDAGNSLAGIAVLEQLTKQLGRSVY”, the “soluble on expression in E. coli” value is on record as “soluble”. In the case of “MTVGMSGFTRAGEAKAVPLALAERAKTNPMKITLMTGASLGNDLDKTMVEAGMLARRMPFQSDPALRKAINDGRVMFIDQHLSETVEQLRGGQIHGVDIAIVEAVAITAEGGIVPTTSVGNSASFAILADKVIVEINLSQPEVLEGLHDIFIPAKRPTRMPIPVVATDSRVGLPFIPVPPEKIAAIVLSDKSDSFSTVLPPDDETKAIAGHLTEFLLNEVRHGRMTHELQPLQAGIGTIANAVMHGFIDTPFHDLKMYSEVLQDSTFELFDAGKLTFASGSSITLSSAMNEQVMPRLSEYKSRLILRPQEVSNHPEVIRRLGIIGINTALEFDIYGNVNSTHVGGTHMMNGIGGSGDFARNAYMSIFVTKSIAKGGAISSVVPMVSHVDHTEHDVDILVTETGLADLRGLAPRERAAVIIANCVHPSYRDALTDYYQRAAARGGHTPHLIEEALSWHNALRERGTMLPQRLEHHHHHH” it was “not soluble”; in that of “MEIELICICCPKGCHLKVDDKSLRVEGNNCPRGAEYGVNEITNPVRTITSTVKVEKGEAVIVPVKTKEPIPKKLTMGCMEEINKAVINAPVKIGDVVIKNVLGTGIDVVATKNVSGI”, “soluble”; in that of “MAHHHHHHMARTLLLNIQHHQPDLGLSEVDIELGMLAGLLHDVGHGPFSHLFEDVVSRRCGIEFNHEDMSEKIARRVLRDLVPQTHVDVVVGLMRGKALLGITYGEIISNKRNGIDVDRLDYFIRDSMCCFGKPTVDVRVNRLFNSARIVCEEGQWQLGFEQKLALSLREIFTLRAKLHKNVYQHQVTKAIGHMIGDVIHAAAPHFRVGGHTLVECAQDETLFLKLGDWILEAIEASEAPHLAEAHAILHRLRTRDIYRVAYSSALDITMRAPMAAVDWPAAILEHAHPSFPLNADDFIAEVVVINQGKGTEDPLESVLFFNPKKPSQPLTRLKPAEDLKHGSPLFTPLQFEERTLMVFERRPTNGAVQRACERLNADPKYAAFFTDSLPFYNTK”, “soluble”.

Consider “MKGEEKMPSFDIVSEVDLQEARNGVDNAVREVESRFDFRGVEATIELNDANKTIKVLSESDFQVNQLLDILRAKLLKRGIEGASLDVPDEFVHSGKTWYVEAKLKQGIESAVQKKIVKLIKDSKLKVQAQIQGEEIRVTGKSRDDLQSVMALVRGGDLGQPFQFKNFRD”, for which the “soluble on expression in E. coli” value is “not soluble”. To “PYIEIFEQPRQRGMRFRYKCEGRSAGSIPGEHSTDNNKTFPSIQILNYFGKVKIRTTLVTKNEPYKPHPHDLVGKDCRDGYYEAEFGPERRVLSFQNLGIQCVKKKDLKESISLRISKKINPFNVPEEQLHNIDEYDLNVVRLCFQAFLPDEHGNYTLALPPLISNPIYDNRAPNTAELRICRVNKNCGSVKGGDEIFILCDKVQKDDIEVRFVLDNWEAKGSFSQADVHRQVAIVFRTPPFLRDITEPITVKMQLRRPSDQEVSEPMDFRYLPD” belongs “soluble”. To “QVQLQESGGGLVQPGGSLRLSCAASGFTFSNSAMSWVRQAPGKGLEWVSSISGSGGNTYSADSVKGRFTISRDNAKNSLYLQMNSLRAEDTAVYYCARDWYGMDVWGQGTTVTVSS” belongs “soluble”. To “MGSDKIHHHHHHMAPYPYKVQTTVPELQYENFDGAKFGYMFWPVQNGTNEVRGRVLLIHGFGEYTKIQFRLMDHLSLNGYESFTFDQRGAGVTSPGRSKGVTDEYHVFNDLEHFVEKNLSECKAKGIPLFMWGHSMGGGICLNYACQGKHKNEISGYIGSGPLIILHPHTMYNKPTQIIAPLLAKFLPRVRIDTGLDLKGITSDKAYRAFLGSDPMSVPLYGSFRQIHDFMQRGAKLYKNENNYIQKNFAKDKPVIIMHGQDDTINDPKGSEKFIQDCPSADKELKLYPGARHSIFSLETDKVFNTVFNDMKQWLDKHTTTEAKP” belongs “not soluble”; to “MGSDKIHHHHHHMDEQVTILHTNDIHSHFENWPRIQRYLLTEREQRRQSGSHVITVDLGDAVDRAHPLSEATQGQANVALLNAIGYDAVTIGNNEGLGLTHAALNRLYDRANFDVVLDNLTDTATQRPPQWALPAKIITTARGTRVLLLAFTAPFTLTYPLNGWTPASVKTRFPELLRQYAGQYDVLIVMSHLGINVDRWLAKQFPVIDVVIGSHTHHLLVNGELKNGVLIAAAGKYGEYIGRIELTIDHQHHVKAAAAHTVATASLPIVAGDETLITGWEQQGETLLTRQVVAKVPTQLRPHWHHASDLTALGLAAITDYAKTDLGMLNGGLFMRDLPAGMVNRNDLHTMLPHAMHVIRVTLSGEALWRLVYEMELVRPFLNKFPIKGMGFRGQVFGYIQYQGLTWKTGQHTLLVNGQPVNRQQTYQIALLDHDLFIPFFPTINISGRTEILFEAMLRTVVGDYLMRRWPVK”, “not soluble”; to “MGSDKIHHHHHHMQDIDEFLKKHRITEIEAIIPDMAGIARGKIIPRSKFETGESMRLPQAVMIQTVTGDYPEDGSLTGVTDPDMVCLPDASTIRLIPWAIDPTAQVIHDCVHFDGTPVEISPRRVLRRVLELYKAKGWKPVIAPELEFYLVDMNKDPDLPLAPPIGRTGRPETGRQSYSIEAVNEFDPLFEDIYEYCEVQDLEVDTLIHEVGAAQMEINFLHGDPLNLADRVFLFKRTVREAALRHHMYATFMSKPMENEPGSAMHVHQSIVDEETGRNLFTGDDGGPTDMFYAYIAGLQKYTPALMPIFAPYINSYRRLSRFMAAPINVQWGYDNRTVGFRVPHSSPVSRRVENRIPGVDCNPYLAIAGTLAAGYLGMTRRLEPTEPLASDGYSLPYQLPRNLEEGLTLMSACEPLAEILGEKFVKAYLALKETEYEAFFRVISSWERKHLLLHV”, “not soluble”. For “MGSDKIHHHHHHMIVALIIHRPLTKRQKMVAYDVEQLEGKVRGALLQGTNSGKTGVIVLGGSSGRVDTTRAGLFANTGARALALQWFGGANQPPGICEIPLETFVDATDLLISRGCDRTVFVGTSKGAEAALLASTIDHRINVVIAISPSSVVLGNIGAGVDGISWPERSSWSFKRSPLDFVPADINWQKDYRDGLVSYRSFFEKCLSNDVQLNERARIPVESSPADLILVAGGDDALWPSGYFARQILQSRQAHGRQATLIFDKDAGHRILLPGETTQRSKLHAHGGSDEADAKLGQNAWRAIRELL”, the “soluble on expression in E. coli” value was “not soluble”.

Turning to “MGSDKIHHHHHHMTVKAKRFRIGVEGATTDGREIQREWLVQMAASYNPTVYTALINLEHIKSYLPESTFNRYGRVTGLVAEEIQDGPLAGKMALYADIEPTDALVELVKKGQKLFTSMEVSTKFADTGKAYLVGLGATDDPASLGTEMLAFSASAAHNPLANRKQNPENLFSEAVETLIELEEVQDEKPSLFARVTALFTKKEQTDEARFSDVHKAVELVASEQQNLSERTDKSLSEQDKRLSELESSLQEQLAAFAELEQKLSSEDSRKDYRQRAPGGDAPAGTLTNC”, the “soluble on expression in E. coli” value was “not soluble”. In the case of “MEERMEMISERPKESMYSWNKTAEKSDFEAVEALMSMSCSWKSDFKKYVENRPVTPVSDLSEEENLLPGTPDFHTIPAFCLTPPYSPSDFEPSQVSNLMAPAPSTVHFKSLSDTAKPHIAAPFKEEEKSPVSAPKLPKAQATSVIRHTADAQLCNHQTCPMKAASILNYQNNSFRRRTHLNVEAARKNIPCAAVSPNRSKCERNTVADVDEKASAALYDFSVPSSETVICRSQPAPVSPQQKSVLVSPPAVSAGGVPPMPVICQMVPLPANNPVVTTVVPSTPPSQPPAVCPPVVFMGTQVPKGAVMFVVPQPVVQSSKPPVVSPNGTRLSPIAPAPGFSPSAAKVTPQIDSSRIRSHICSHPGCGKTYFKSSHLKAHTRTHTGEKPFSCSWKGCERRFARSDELSRHRRTHTGEKKFACPMCDRRFMRSDHLTKHARRHLSAKKLPNWQMEVSKLNDIALPPTPAPTQ” it was “soluble”; in that of “MLEVIATCLEDVKRIESAGGKRIELISSYTEGGLTPSYAFIKKAVEVVSIPIHVMIRPHAKSFTYTEEEIEMMKEDIIVAQKLGAAGVVLGVLNERNEVDEEKLADLLSVVDGINVTYHRAIDDIKNPVEAMSTLKKFHKVTHVLTSGGQGNIVENIPVLTEMQKVSEGQIQLVAGAGVTKENIKRLLDETGITQAHVGTAVREGKSCFSEIDPNLVQELVEIIKLEHHHHHH”, “soluble”. To “MGSDKIHHHHHHMFEEIAYMILADGNEKSRFEANAYLRAARSLRSITEDVEDIYNRGGIEALTSVEGIGKKIASYIEEYIKTGRIKRYDDLKIRYPVDFRDLSRVQGLGPRKIVSLYKYAGVKNIDDLKAALADHRIASIPGFGEKSEKEIAENIQIAEMSFRRIPLPQGYRTAMEIADEIERAAGTVRVSVAGSIRRMRDTVGDIDLLCVTSDPPRAIAAFTGSKHCQRVVSSGEKKVTIATDAGVTCDLRIIDKGSFGSALQYFTGSKDHNIKLRKIAIDRGLKLNEYGLFRGNSNLVENQGEEKIYAELGMQYIPPELREDRGEIDRAISMTLPELVEAGDIRGDLYISYEFIRKYGADVLKKMERLQYFGVVLGSPEEKEGIKSVMNDGRIFLGIELTSKTYAEDAGEFDFTVLDLSGFPDEASARGAIESVKPTFIRNVTGRTFSSGRKMDPANIFEAAAKSGSAVMITASNDAFDPVAEDIMPHREGLMFALASFAQRPDDLGDMTFGIGIARRAWISKDRIINTMDYEKIAKIMRRP” belongs “not soluble”; to “MMSAPKITFIGAGSTIFVKNILGDVFHREALKTAHIALMDIDPTRLEESHIVVRKLMDSAGASGKITCHTQQKEALEDADFVVVAFQIGGYEPCTVTDFEVCKRHGLEQTIADTLGPGGIMRALRTIPHLWQICENMTEVCPDATMLNYVNPMAMNTWAMYARYPYIKQVGLCHSVQGTAEELARDLNIDPATLRYRCAGINHMAFYLELERKTADGSYVNLYPELLAAYEAGQAPKPNIHGNTRCQNIVRYEMFKKLGYFVTESSEHFAEYTPWFIKLGREDLIERYKVPLDEYPKRCVEQLANWHKELEEYKNASRIDIKPSREYASTIMNAIWTGEPSVIYGNVRNDGLIDNLPQGCCVEVACLVDANGIQPTKVGTLPSHLAALMQTNINVQTLLTEAILTENRDRVYHAAMMDPHTAAVLGIDEIYALVDDLIAAHGDWLPSWLHR”, “not soluble”; to “FDIALTGREGKKIGAAFIVGDSEEVLKRSHQIILNPYEGHEEAHRNILDRRNWESIKEFALLDGVFVIDETGIVRAAGRYLDVDGKNIDIEKGLGGRHVSAAAISRDTVAISVTVSESGGVLRVYKDAKETICMESLQPASRYV”, “not soluble”. In the case of “MSKATTPGDQPKVSEMDFYQLLGVEKMASEAEIKSAYRKLALKYHPDRNPNDAHAQEEFKKVSIAYSVLSDPNKRRQYDVSGPSENQLDFEGFDVSEMGGVGRVFGALFSKLGVPIPTQIVPKVLAQARHICMGQECDVQARQLPPGETVTSSVSKQHAHFYEINIQEEHRKNGVAIICKSSSSKFKLVLFDKEGGVRMIQESGKRGKAGTQADMFFVPYNVANIQEFNAMKYHLEDKETPLAFHYLDSFEMQTATLLETRKHYIAVYGDNWISDVKYSITFLPVEPSAVEQLNEIQDTEKSISIIKKEMLDFQREFTEAKRKYDEAVAKLKVQDDTILKALAHREELYNEVLQKSQEPYNKKVSPSKSSGGLLGWFK” it was “not soluble”.
